For 1 substance, stoichiometry N results are on record in publication PMC3544922.

Several values for one entry are separate records, joined by “and”; a condition that tells them apart may be missing. Identical values can stand only once.

The target of the assay is recombinant HIV-1 integrase (HIV-1). The assay is described as follows: atomic force microscopy; 50 ng integrase incubated with 10 ng target DNA xkyk in binding buffer with MnCl2 at 30°C, dialysed against PBS 48 h at 4°C, digested with ScaI, adsorbed on mica with spermidine, tapping mode in air; size and volume of integrase bound on DNA (n = 123).

Regarding recombinant HIV-1 integrase (enzyme), the stoichiometry N (in general, a count of units in the complex or per binding partner) is 2 and 4.
